In patent publication US20040091908A1:

Molecular target: potassium channel Kv4.3 T1 domain (tetramerization domain, residues 29-143, with N-terminal Met, C-terminal Leu-Glu and six His-tag)
Experiment: X-ray crystal structure of the T1 tetramer

solvent-accessible surface area buried by each subunit at its two subunit interfaces: 960 Å^2
Substance: potassium channel Kv4.3 T1 domain (tetramerization domain, residues 29-143, with N-terminal Met, C-terminal Leu-Glu and six His-tag)
